Measurements taken from patent publication US20040010124A1 (MacroGenics, published 2004).
Substitutions are numbered along the chain they refer to.

B1: chimeric antibody ch3G8 (ch3G8VH/ch3G8VL) (antibody, V domains shown)
VH: QVTLKESGPGILQPSQTLSLTCSFSGFSLRTSGMGVGWIRQPSGKGLEWLAHIWWDDDKRYNPALKSRLTISKDTSSNQVFLKIASVDTADTATYYCAQINPAWFAYWGQGTLVTVSS
VL: DTVLTQSPASLAVSLGQRATISCKASQSVDFDGDSFMNWYQQKPGQPPKLLIYTTSNLESGIPARFSASGSGTDFTLNIHPVEEEDTATYYCQQSNEDPYTFGGGTKLEIK
notes: Mouse 3G8 VH (FR4 ala to ser) on human Cγ1 and mouse 3G8 VL on human Cκ; also called chimeric 3G8; ch3G8-γ1
B2: hu3G8VH-1/hu3G8VL-1 (antibody, human IgG1, kappa)
heavy: not shown
light: DIVMTQSPDSLAVSLGERATINCKASQSVDFDGDSFMNWYQQKPGQPPKLLIYTTSNLESGVPDRFSGSGSGTDFTLTISSLQAEDVAVYYCQQSNEDPYTFGQGTKLEIKRTVAAPSVFIFPPSDEQLKSGTASVVCLLNNFYPREAKVQWKVDNALQSGNSQESVTEQDSKDSTYSLSSTLTLSKADYEKHKVYACEVTHQGLSSPVTKSFNRGEC
notes: HEK-293; also called Hu3G8-1.1
B3: hu3G8VH-3/hu3G8VL-1 (antibody, V domains shown)
VH: QVTLRESGPALVKPTQTLTLTCTFSGFSLRTSGMGVGWIRQPPGKALEWLAHIWWDDDKRYNPALKSRLTISKDTSKNQVVLTMTNMDPVDTATYYCARINPAWFAYWGQGTLVTVSS
VL: DIVMTQSPDSLAVSLGERATINCKASQSVDFDGDSFMNWYQQKPGQPPKLLIYTTSNLESGVPDRFSGSGSGTDFTLTISSLQAEDVAVYYCQQSNEDPYTFGQGTKLEIK
notes: Human Cγ1/Cκ constant regions; HEK-293
B4: hu3G8VH-43/hu3G8VL-1 (antibody, V domains shown)
VH: B3 VH with V2I, R5K, A10T, R30S, M34V, N62S, A64S, S72T, W104Y
VL: B3 VL
notes: as for B3
B5: hu3G8VH-37/hu3G8VL-1 (antibody, V domains shown)
VH: B3 VH with V2I, R5K, A10T, R30S, M34V, H52L, N62S, A64S, R99K, W104Y
VL: B3 VL
notes: as for B3
B6: hu3G8VH-44/hu3G8VL-1 (antibody, V domains shown)
VH: QITLKESGPTLVKPTQTLTLTCTFSGFSLSTSGVGVGWIRQPPGKALEWLAHIWWDDDKRYSPSLKSRLTITKDTSKNQVVLTMTNMDPVDTATYYCAHINPAYFDYWGQGTLVTVSS
VL: B3 VL
notes: as for B3
B7: hu3G8VH-4/hu3G8VL-1 (antibody, V domains shown)
VH: B3 VH with R30S, R99Q, A106D
VL: B3 VL
notes: as for B3
B8: hu3G8VH-45/hu3G8VL-1 (antibody, V domains shown)
VH: B6 VH with H99Q
VL: B3 VL
notes: as for B3
B9: hu3G8VH-17/hu3G8VL-1 (antibody, V domains shown)
VH: B3 VH with R30S, R99A
VL: B3 VL
notes: as for B3
B10: hu3G8VH-5/hu3G8VL-1 (antibody, V domains shown)
VH: B3 VH with R30S, R99Q
VL: B3 VL
notes: Human Cγ1/Cκ constant regions; HEK-293; also called Hu3G8-5.1; h3G8 5.1
B11: hu3G8VH-14/hu3G8VL-1 (antibody, V domains shown)
VH: B3 VH with R30S, D56N
VL: B3 VL
notes: as for B3
B12: hu3G8VH-27/hu3G8VL-1 (antibody, V domains shown)
VH: B6 VH with I2V, K5R, T10A, T72S, H99K
VL: B3 VL
notes: as for B3
B13: hu3G8VH-36/hu3G8VL-1 (antibody, V domains shown)
VH: B6 VH with H52L, T72S, H99Q
VL: B3 VL
notes: as for B3
B14: hu3G8VH-6/hu3G8VL-1 (antibody, V domains shown)
VH: B3 VH with R30S, M34V, A106D
VL: B3 VL
notes: as for B3
B15: hu3G8VH-30/hu3G8VL-1 (antibody, V domains shown)
VH: B6 VH with I2V, K5R, T10A, T72S, H99Q
VL: B3 VL
notes: as for B3
B16: hu3G8VH-42/hu3G8VL-1 (antibody, V domains shown)
VH: B6 VH with H99R, Y104W, D106A
VL: B3 VL
notes: as for B3
B17: hu3G8VH-8/hu3G8VL-1 (antibody, V domains shown)
VH: B3 VH with R30S, W104Y
VL: B3 VL
notes: as for B3
B18: hu3G8VH-40/hu3G8VL-1 (antibody, V domains shown)
VH: B6 VH with W54F, T72S, H99R, Y104W, D106A
VL: B3 VL
notes: as for B3
B19: hu3G8VH-16/hu3G8VL-1 (antibody, V domains shown)
VH: B3 VH with R30S, R99K
VL: B3 VL
notes: as for B3
B20: hu3G8VH-24/hu3G8VL-1 (antibody, V domains shown)
VH: B6 VH with I2V, K5R, T10A, T72S, H99A, D106A
VL: B3 VL
notes: as for B3
B21: hu3G8VH-29/hu3G8VL-1 (antibody, V domains shown)
VH: B6 VH with I2V, K5R, T10A, T72S
VL: B3 VL
notes: as for B3
B22: hu3G8VH-12/hu3G8VL-1 (antibody, V domains shown)
VH: B3 VH with R30S, N62S, A64S
VL: B3 VL
notes: as for B3
B23: hu3G8VH-25/hu3G8VL-1 (antibody, V domains shown)
VH: B6 VH with I2V, K5R, T10A, T72S, D106A
VL: B3 VL
notes: as for B3
B24: hu3G8VH-19/hu3G8VL-1 (antibody, V domains shown)
VH: B3 VH with R30S, R99Q, W104Y
VL: B3 VL
notes: as for B3
B25: hu3G8VH-28/hu3G8VL-1 (antibody, V domains shown)
VH: B6 VH with I2V, K5R, T10A, T72S, H99A
VL: B3 VL
notes: as for B3
B26: hu3G8VH-18/hu3G8VL-1 (antibody, V domains shown)
VH: B3 VH with R30S, R99H
VL: B3 VL
notes: as for B3
B27: hu3G8VH-23/hu3G8VL-1 (antibody, V domains shown)
VH: B6 VH with I2V, K5R, T10A, T72S, H99K, D106A
VL: B3 VL
notes: as for B3

Biological target: T1, soluble form of human CD16A (sCD16A) (human, UniProt P08637 17-203)
T1 construct: CD16A gene truncated just prior to the transmembrane region, expressed in HEK-293; The last seven residues come from vector pCDNA3.1; also called sFcRIIIa
T1 sequence (P08637 other isoform, or with tags, fused parts or gaps limits assumed): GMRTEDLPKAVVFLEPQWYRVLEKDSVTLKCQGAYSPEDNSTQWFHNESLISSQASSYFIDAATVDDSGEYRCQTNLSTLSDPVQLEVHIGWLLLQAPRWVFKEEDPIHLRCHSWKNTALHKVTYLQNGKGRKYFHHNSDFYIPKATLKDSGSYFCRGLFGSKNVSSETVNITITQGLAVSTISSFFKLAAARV
Experiment: in vitro, method not given
Excerpt: The same format was used to assay binding of sFcRs to immune complexes (IC) formed on the ELISA plate between ch4-4-20 and FITC-BSA.
After one hour, binding of the soluble receptor to the IC was detected using streptavidin-HRP conjugate and TMB development.

**Q.** Does B1 bind?
**A.** Result: binds

Biological target: T1, soluble form of human CD16A (sCD16A)
Experiment: ELISA, sCD16A captured by mAb LNK-16
Protocol: The plate was washed and dilutions of recombinant antibodies starting at 0.5 μg/ml in PBS-T-BSA were then added and incubated for 1 hr at room temp. […] After stopping color development using dilute sulfuric acid, the plate was read at 450 nm.

**Q.** Does B2 bind?
**A.** Result: binds

**Q.** Does B3 bind?
**A.** Result: binds

**Q.** Does B4 bind?
**A.** Result: binds

**Q.** Does B5 bind?
**A.** Result: binds

**Q.** Does B6 bind?
**A.** Result: binds

**Q.** Does B7 bind?
**A.** Result: binds

**Q.** Does B8 bind?
**A.** Result: binds

**Q.** Does B9 bind?
**A.** Result: binds

**Q.** Does B10 bind?
**A.** Result: binds

**Q.** Does B11 bind?
**A.** Result: binds

**Q.** Does B12 bind?
**A.** Result: binds

**Q.** Does B13 bind?
**A.** Result: binds

**Q.** Does B14 bind?
**A.** Result: binds

**Q.** Does B15 bind?
**A.** Result: binds

**Q.** Does B16 bind?
**A.** Result: binds

**Q.** Does B17 bind?
**A.** Result: binds

**Q.** Does B18 bind?
**A.** Result: binds

**Q.** Does B19 bind?
**A.** Result: binds

**Q.** Does B20 bind?
**A.** Result: binds

**Q.** Does B21 bind?
**A.** Result: binds

**Q.** Does B22 bind?
**A.** Result: binds

**Q.** Does B23 bind?
**A.** Result: binds

**Q.** Does B24 bind?
**A.** Result: binds

**Q.** Does B25 bind?
**A.** Result: binds

**Q.** Does B26 bind?
**A.** Result: binds

**Q.** Does B27 bind?
**A.** Result: binds
